One test deals with T1, recombinant human Grp78 (human, UniProt P11021 19-654).
T1 construct: Soluble probe in the FAR Western blot, detected with anti-Grp78 Ab; also called rGrp78; Grp78p
Kind of test: FAR Western blot with recombinant human Grp78 and anti-Grp78 Ab; bands identified by MALDI-TOF-MS/MS.

Test [1] has as its target T2, endothelial cell surface GRP78 (human umbilical vein endothelial cells) (human, UniProt P11021 19-654).
T2 construct: whole, on cells; In the adherence and endocytosis assays it is on intact endothelial cells; also called endothelial cell GRP78; Glucose Regulated Protein 78
The test is described as follows: pull-down of biotin-labeled endothelial cell surface proteins by yeast cells, immunoblot with anti-GRP78 Ab. Background: In western blotting, separated proteins are transferred to a membrane and probed.

T1 sequence (P11021 19-654 limits assumed): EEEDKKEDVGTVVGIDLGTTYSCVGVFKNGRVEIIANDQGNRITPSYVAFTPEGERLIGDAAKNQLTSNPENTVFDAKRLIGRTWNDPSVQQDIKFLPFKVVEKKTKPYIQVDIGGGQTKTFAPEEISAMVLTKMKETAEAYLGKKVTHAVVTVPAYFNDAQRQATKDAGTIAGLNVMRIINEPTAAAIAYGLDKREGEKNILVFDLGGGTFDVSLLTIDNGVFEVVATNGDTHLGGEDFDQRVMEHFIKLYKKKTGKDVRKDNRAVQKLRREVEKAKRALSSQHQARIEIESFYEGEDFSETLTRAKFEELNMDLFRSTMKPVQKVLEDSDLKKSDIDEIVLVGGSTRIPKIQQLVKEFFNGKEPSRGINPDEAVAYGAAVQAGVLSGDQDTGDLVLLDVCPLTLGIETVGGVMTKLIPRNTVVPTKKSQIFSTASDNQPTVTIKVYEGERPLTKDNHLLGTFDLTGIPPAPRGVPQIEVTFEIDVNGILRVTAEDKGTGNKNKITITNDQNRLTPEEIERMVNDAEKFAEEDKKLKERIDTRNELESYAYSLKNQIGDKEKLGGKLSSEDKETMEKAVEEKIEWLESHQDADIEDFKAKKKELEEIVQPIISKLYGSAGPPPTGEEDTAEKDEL
T2 sequence (P11021 19-654): as the sequence (P11021 19-654 limits assumed) above

B1: CotH2 (RO3G-08029), native protein in cell wall material from supernatants of R. oryzae germling protoplasts (other)
chain: ASVQFNLIAPSATDVKVSVNGQQVALTASDPNVPYFTGSAEVGGTEESFERSLAGITNSTFNDFYNRPVTYANLPQLPWPIENDPQWTRKGKKAEIFDDNYIPSVFFHGDDSQVQDLVKNVPKDKVTGTLTFIGSNYVHSFANVSFGIHGAGKKHNNAKQSWKWTLSGTDTMGNRNHFKLRHMEEDPTQIRERLYADILHAMGTYANETTMVRLFINGQGFGTFNMLDDITEFSYINAMFYGGNPPATLGPLFDGASGADFIYHPGNLDGYSSWKPNKDNANGEGYEAFDPLCKAWNETDYTDNTAIANFEKMFDTEHFLRFMVIEYLTAHWDGYWMGQTNDGAYRDPSDNNKWYFLDQDFDATFGVNLDVPENKDFISVSYKDFPSRYPAGVMANGLLQNADKKAKFEQYLTETVRVLFNNVTLTNRVLAIHNFLSPDLEWDRSIVQQSPGTNFGWTFEQTSQNLWQGVSAPNNNGGGAEWGLVEYIAAKSQAMAKEFNITIVSEPVGPPAANGTATSTNDGGNTHTAAGESKPASSSESSGSKIASQSVS
notes: Protein on the FAR Western blot, identified by MALDI-TOF-MS/MS of excised bands; also called R. oryzae ligand; R. oryzae surface protein
With B1, the binding result with recombinant human Grp78 is “binds”.

B2: CotH3 (RO3G-11882), native protein in cell wall material from supernatants of R. oryzae germling protoplasts (other)
chain: ASIKFNVIAPNATDVKVSVNGQQVTLTASDANVPYFTGSAEVGASKTYKYVAGGTEESFDRSLDGITNSTLNDFYNRPVTYANLPQLPWPIEKDPQWTRSGSKADIFDDNYIPSVFFHGDDSQVQNVVKNVPADRISGTLTFIGSNYVYSFQNVSFGIHGAGKKHNNAKQSWNWILSGSDTMGNRNFFKLRHMEEDPTQIRERLYSDILHAMGTYANDATMVRLFINNQGFGTFNMLDDITQFSYINAKFYNGKPPATLGPLYDGASGADFLYHPGNLDGYSSWVANTANPNGEAYEALDPLCKAWNETTYTDNTAIANFEKMFDLDRFMRFMVIEYLTADWDGYWMGQTNDGAYRDPTDNNKWYFLDQDFDGTFGVNLAAPEGNAFLDVSYKDFPSRYPGAVMINNLLQNADKKATFEKYLTETVRVLFNNVTLTNRVLALHNFLLPDLEWDRSIVQQSPGINFGWTFDQVTQNLWQGVTAPNNNGGGAAFGLVEYIAAKAQAVAKEFNISIVSQPVGPPSANGTTAAAPAPAAGNSTGKGGNQSISSSASSNKTSAQSTS
notes: as for B1
Take B2: the binding result in the test with recombinant human Grp78 is on record as “binds”.

B3: CotH1 (RO3G-05018) from R. oryzae, on the cell surface of S. cerevisiae (other)
chain: AKVSFKVIAPDAKNRVHVNINGVLVELKASDPDVPYYTGFAELKHGQSYNYVVDGNAEPFKRLLNGSSTKNEFFNRPVTYATNIPELPSILTEGSWTRGDTSNPIWDSNYVPSIFVTGNPREMNELIENVKKNTYKTKITFIGPETINTFEGCTLGLHKPGRKHNDAKQSWIWALPEGQFMANRNWFKIRHMEEDPTQLREKLYADILRKMGTYANEANMVRFFINKEGMGIFNMLDDVIMYSYINAMFYHGDTPEQLGGLYDGASGASFNFPGDFDSFIPNVESPLDQDAIEPFSKAFTSIDFLEDEQVKTIGKYFDYDQFLRFMVMEFLTGDWDGYWQEQTNDGAYIDINDHNKIYYLGQDFDATFGVNLEQKREFVNVSYTEYPKLFPGGVLINRLLQNPGVKKTFENYLKITVQEIFNNATLGPYVTARHEFLAPDLQWDRSIKQRSPGNIFGWTFEQTYENLFEGVTAPGKNSGGADWGLLEWVAAKEKAVKSYLSSSEAADAATVTQVPEAPGTDGTPSESTAWPHANTRFRQAEASNTHKIGTSSPSNFIVKIKQGTVSS
notes: also called S. cerevisiae expressing CotH1
As to B3, the binding result in test [1] is recorded as “no binding”.
